This sample holds only a part of the variants without activity.
B1: TPR 5TU (parent)
chain: GGAUCUUCUCGAUCUAACAAAAAAGACAAAUCUGCCACAAAGCUUGAGAGCAUCUUCGGAUGCAGAGGCGGCAGCCUUCGGUGGCGCGAUAGCGCCAACGUUCUCAACUAUGACACGCAAAACGCGUGCUCCGUUGAAUGGAGUUUAUCAUG

Variants of: B1
Assay: polymerase ribozyme fitness, log enrichment relative to wild type (log ratio); higher = more active; in vitro selection for triplet polymerase activity
Outline: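 Fitness is a logarithmic measure of how a genotype enriched relative to the wild type, with replicate averages weighted by inverse variance. The logarithm uses base 2, and enrichment came from Illumina sequencing of input and output libraries. Those libraries were PCR-built, transcribed mutants of each subunit of a heterodimeric triplet polymerase ribozyme, passed through one triplicate in vitro selection round that included frozen incubation at −7 °C, gel excision of extended constructs and streptavidin-bead capture. Genotypes were kept only if they had ≥10 input reads and ≥1 read per output.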

Variant | polymerase ribozyme fitness (log ratio)
U61A C75U | -1.92
A60G C93A | -2.81
A60G C93U | -1.09
G62A C103A G152A | -3.85
G62A G84A | -2.31
A60G U90C C93A A150U | -0.698
U61A A66C A73U A91G | ≤ -4.2
G59U G126A | 0.622
A60C C85U A119C G124A | -1.25
G59U G65C U109G | ≤ -4.2
A60C G67U C76A C96U A107G C125U | ≤ -4.2
U61A A91C | ≤ -4.2
G62A C93U C118U G143U | -3.81
G59U G86A G143U | -3.52
G62C A97G | -0.203
G59U C114U | -1.62
G62U G65A C103A | -3.94
U61A U109G | -2.11
A60G C108U G126U | -3.26
A60C G83A C108G | ≤ -4.2
A60C G84A A91G C116U | -4.11

Variant | polymerase ribozyme fitness (log ratio)
G62A C96A | -2.92
U61A G65C U82G C118A A138U U151A | ≤ -4.2
U61A G62A | -1.48
G62A C85U G86U C87G | ≤ -4.2
G62A A120C | -1.04
A60U G84C C123G | -3.24
C63A C93U A98C | -1.62
U61G C72U | -1.45
A60G G83A U127G G136A A142G | -3.28
G62U G92C C96A A98U | -2.71
A60G C93U C95A U145A | -1.82
C63A U102C | -0.926
G62A A115G A120G | -0.97
A60U A97C U104C U134G U144C | -4.05
U61G G117C A142C U146G | ≤ -4.2
G62A G92A | -3.43
U61G G124C A147U | -1.99
G59U C132A | -2.09
G62C G68A U82G C93A A97G C118A G143U | ≤ -4.2
C63U C85A | -3.57
G62U G68C A98G G124C G141A | ≤ -4.2

Variant | polymerase ribozyme fitness (log ratio)
A60G C85U | -0.323
U61G G124C | -3.25
A60G C63U G94A C114U | -2.5
G59U C95U G133U | ≤ -4.2
U61A A66C G80A U82G | ≤ -4.2
G62C G70A C79G G86C A142C C149U | ≤ -4.2
G62A G68C C87A | ≤ -4.2
G62A C87U C116U G117U | -0.42
C63G C93A | -1.77
A60C C85A | -2.62
A60C C85G | -3.9
A60U C99A G140U | ≤ -4.2
A60G G83A A98G | 0.0303
C63G G70A | -3.15
C63G C85U U145A | 0.338
G62C C63U | -2.25
G62C C93U | -3.83
A60G A113G C114U U135A | -3.05
C63G G92A U145G | -2.07
C63G C75U C93U A120U | -0.964
G59U C95A C96G A119U C123U C149U | -3.57

Variant | polymerase ribozyme fitness (log ratio)
G62U C85U C96U C118U | -1.28
C63A U102C A142G | -2.31
U61A G83A | -2.9
U61G C69U C93G G143A | ≤ -4.2
U61A C103U | -1.31
C63G G92A | -2.18
G59U C93U | -3.08
A60U G86U | -4.01
G62A A73C C87G | ≤ -4.2
U61A A98U | -1.28
G59U G86A | -1.19
A60U C69A A89U | -0.419
G59U C87A A97U | ≤ -4.2
A60G C85A U104A A142U | -3.14
A60U U61A G84U G128A G140C U148C | ≤ -4.2
U61A C85U A89U C118A C149U | -3.61
A60C G83A C85U U101G | -3.16
G59U U82A C93A A142C | ≤ -4.2
A60G U61G C93U | -2.26
A60G U144G | 1.35

— the RNAGym collection of RNA variant scans (doi:10.1073/pnas.2313332121)
